The sequences below were run on Escherichia coli TOP10 (assay: shrunken log2 fold change of peptide-encoding DNA abundance (4.5 h post-induction vs induction); higher = less antimicrobial activity (less host growth inhibition)). Details: time post-induction: 4.5 h; library: site-saturation at positions 5, 18, 19, 20.
With RRIRCRPPRLPRPRPRPCMAPRP the “shrunken log2 fold change” value was -0.427. RRIRWRPPRLPRPRPRPPVKPRP was tested, and the “shrunken log2 fold change” value was 0.644. With RRIRGRPPRLPRPRPRPDIKPRP the “shrunken log2 fold change” value was 0.547. With RRIRYRPPRLPRPRPRPIKDPRP the “shrunken log2 fold change” value was -0.171. For RRIRWRPPRLPRPRPRPGQDPRP, the “shrunken log2 fold change” value was 0.334. For RRIRLRPPRLPRPRPRPKDKPRP, the “shrunken log2 fold change” value was 0.112. With RRIRIRPPRLPRPRPRPFCRPRP the “shrunken log2 fold change” value was 0.087. RRIRWRPPRLPRPRPRPRSIPRP was tested, and the “shrunken log2 fold change” value was -0.006. With RRIRTRPPRLPRPRPRPEFYPRP the “shrunken log2 fold change” value was -0.212. In the case of RRIRRRPPRLPRPRPRPKKGPRP, the “shrunken log2 fold change” value was 0.403. RRIRSRPPRLPRPRPRPAASPRP was tested, and the “shrunken log2 fold change” value was -0.0449. In the case of RRIRVRPPRLPRPRPRPGMKPRP, the “shrunken log2 fold change” value was -1.14. For RRIRIRPPRLPRPRPRPHGKPRP, the “shrunken log2 fold change” value was -0.326. With RRIRERPPRLPRPRPRPVTFPRP the “shrunken log2 fold change” value was -0.019. For RRIRYRPPRLPRPRPRPFVRPRP, the “shrunken log2 fold change” value was 0.00599. In the case of RRIRIRPPRLPRPRPRPYSIPRP, the “shrunken log2 fold change” value was -0.129. RRIRNRPPRLPRPRPRPVTFPRP was tested, and the “shrunken log2 fold change” value was -0.356. For RRIRPRPPRLPRPRPRPRVDPRP, the “shrunken log2 fold change” value was 0.263. In the case of RRIRERPPRLPRPRPRPNKWPRP, the “shrunken log2 fold change” value was -0.576. With RRIRNRPPRLPRPRPRPIHWPRP the “shrunken log2 fold change” value was 0.0944. With RRIRWRPPRLPRPRPRPIFPPRP the “shrunken log2 fold change” value was 0.13. With RRIRCRPPRLPRPRPRPNNWPRP the “shrunken log2 fold change” value was -0.362. For RRIRTRPPRLPRPRPRPEYCPRP, the “shrunken log2 fold change” value was -0.189. In the case of RRIRARPPRLPRPRPRPQDSPRP, the “shrunken log2 fold change” value was -0.0459. For RRIRERPPRLPRPRPRPVPHPRP, the “shrunken log2 fold change” value was -0.0329. For RRIRFRPPRLPRPRPRPRNPPRP, the “shrunken log2 fold change” value was 0.118. With RRIRERPPRLPRPRPRPAETPRP the “shrunken log2 fold change” value was 0.0123. With RRIRTRPPRLPRPRPRPPNHPRP the “shrunken log2 fold change” value was -0.000973. RRIRNRPPRLPRPRPRPWKNPRP was tested, and the “shrunken log2 fold change” value was 0.175. For RRIRVRPPRLPRPRPRPRFGPRP, the “shrunken log2 fold change” value was 0.249. For RRIRGRPPRLPRPRPRPVFNPRP, the “shrunken log2 fold change” value was 0.155. For RRIRIRPPRLPRPRPRPQMQPRP, the “shrunken log2 fold change” value was -0.325. In the case of RRIRKRPPRLPRPRPRPLCVPRP, the “shrunken log2 fold change” value was 0.247. RRIRNRPPRLPRPRPRPQFNPRP was tested, and the “shrunken log2 fold change” value was -0.0424. RRIRHRPPRLPRPRPRPSPYPRP was tested, and the “shrunken log2 fold change” value was -0.703. RRIRERPPRLPRPRPRPLWLPRP was tested, and the “shrunken log2 fold change” value was -0.203. In the case of RRIRTRPPRLPRPRPRPQQSPRP, the “shrunken log2 fold change” value was -0.0133. In the case of RRIRMRPPRLPRPRPRPVYVPRP, the “shrunken log2 fold change” value was -0.161. RRIRFRPPRLPRPRPRPAPQPRP was tested, and the “shrunken log2 fold change” value was 0.666. With RRIRQRPPRLPRPRPRPTAAPRP the “shrunken log2 fold change” value was 0.933. In the case of RRIRDRPPRLPRPRPRPFGFPRP, the “shrunken log2 fold change” value was -0.0238. With RRIRPRPPRLPRPRPRPRPRPRP the “shrunken log2 fold change” value was 0.744. RRIRCRPPRLPRPRPRPKHAPRP was tested, and the “shrunken log2 fold change” value was 0.302. RRIRPRPPRLPRPRPRPSRNPRP was tested, and the “shrunken log2 fold change” value was 0.0326. For RRIRARPPRLPRPRPRPGHLPRP, the “shrunken log2 fold change” value was 0.337. For RRIRERPPRLPRPRPRPCEAPRP, the “shrunken log2 fold change” value was -0.041. With RRIRKRPPRLPRPRPRPEAPPRP the “shrunken log2 fold change” value was 0.957. RRIRDRPPRLPRPRPRPVFAPRP was tested, and the “shrunken log2 fold change” value was 0.597. For RRIRWRPPRLPRPRPRPHEFPRP, the “shrunken log2 fold change” value was -0.0844. In the case of RRIRRRPPRLPRPRPRPKICPRP, the “shrunken log2 fold change” value was 0.0561. RRIRCRPPRLPRPRPRPPHYPRP was tested, and the “shrunken log2 fold change” value was 0.638. In the case of RRIRDRPPRLPRPRPRPCMRPRP, the “shrunken log2 fold change” value was 0.311. RRIRWRPPRLPRPRPRPRLEPRP was tested, and the “shrunken log2 fold change” value was 0.778. With RRIRIRPPRLPRPRPRPPHSPRP the “shrunken log2 fold change” value was -0.164. For RRIRQRPPRLPRPRPRPLFPPRP, the “shrunken log2 fold change” value was 0.0501. RRIRSRPPRLPRPRPRPKTNPRP was tested, and the “shrunken log2 fold change” value was 0.00294. For RRIRMRPPRLPRPRPRPMNQPRP, the “shrunken log2 fold change” value was 0.646. RRIRIRPPRLPRPRPRPGNLPRP was tested, and the “shrunken log2 fold change” value was -0.175. For RRIRSRPPRLPRPRPRPHNGPRP, the “shrunken log2 fold change” value was 0.00483. For RRIRARPPRLPRPRPRPWIHPRP, the “shrunken log2 fold change” value was -0.264. In the case of RRIRGRPPRLPRPRPRPILMPRP, the “shrunken log2 fold change” value was -0.05. In the case of RRIRERPPRLPRPRPRPVKCPRP, the “shrunken log2 fold change” value was -0.069. For RRIRTRPPRLPRPRPRPQFWPRP, the “shrunken log2 fold change” value was -0.00273. For RRIRERPPRLPRPRPRPIIDPRP, the “shrunken log2 fold change” value was -0.0746. RRIRTRPPRLPRPRPRPFQAPRP was tested, and the “shrunken log2 fold change” value was -0.0372. With RRIRFRPPRLPRPRPRPALFPRP the “shrunken log2 fold change” value was 0.173. For RRIRIRPPRLPRPRPRPVHWPRP, the “shrunken log2 fold change” value was 0.0203. For RRIRCRPPRLPRPRPRPKSRPRP, the “shrunken log2 fold change” value was 0.0706. In the case of RRIRLRPPRLPRPRPRPGLDPRP, the “shrunken log2 fold change” value was -0.0233. In the case of RRIRHRPPRLPRPRPRPTHGPRP, the “shrunken log2 fold change” value was 0.125. RRIRFRPPRLPRPRPRPRAEPRP was tested, and the “shrunken log2 fold change” value was 0.363. RRIRVRPPRLPRPRPRPDMEPRP was tested, and the “shrunken log2 fold change” value was 0.0238. In the case of RRIRQRPPRLPRPRPRPSTKPRP, the “shrunken log2 fold change” value was 0.0644. For RRIRHRPPRLPRPRPRPPSPPRP, the “shrunken log2 fold change” value was 0.169. For RRIRYRPPRLPRPRPRPDCTPRP, the “shrunken log2 fold change” value was -0.268. For RRIRVRPPRLPRPRPRPEGAPRP, the “shrunken log2 fold change” value was 0.451. RRIRRRPPRLPRPRPRPHADPRP was tested, and the “shrunken log2 fold change” value was 0.573. For RRIRARPPRLPRPRPRPANYPRP, the “shrunken log2 fold change” value was -0.122. In the case of RRIRNRPPRLPRPRPRPEGFPRP, the “shrunken log2 fold change” value was 0.0136. For RRIRRRPPRLPRPRPRPWWIPRP, the “shrunken log2 fold change” value was 0.249. In the case of RRIRQRPPRLPRPRPRPESLPRP, the “shrunken log2 fold change” value was -0.00178. In the case of RRIRNRPPRLPRPRPRPPAEPRP, the “shrunken log2 fold change” value was 0.256. In the case of RRIRLRPPRLPRPRPRPWLLPRP, the “shrunken log2 fold change” value was -0.172. RRIRCRPPRLPRPRPRPWHGPRP was tested, and the “shrunken log2 fold change” value was -0.244. RRIRGRPPRLPRPRPRPGTQPRP was tested, and the “shrunken log2 fold change” value was 0.143. With RRIRIRPPRLPRPRPRPQVEPRP the “shrunken log2 fold change” value was -0.127. For RRIRTRPPRLPRPRPRPLLAPRP, the “shrunken log2 fold change” value was 0.282. In the case of RRIRYRPPRLPRPRPRPQFYPRP, the “shrunken log2 fold change” value was -1.86. In the case of RRIRERPPRLPRPRPRPTEHPRP, the “shrunken log2 fold change” value was -0.144. In the case of RRIRKRPPRLPRPRPRPPKFPRP, the “shrunken log2 fold change” value was 0.514. For RRIRWRPPRLPRPRPRPITLPRP, the “shrunken log2 fold change” value was 0.107. For RRIRVRPPRLPRPRPRPMPCPRP, the “shrunken log2 fold change” value was 0.118. In the case of RRIRLRPPRLPRPRPRPYKWPRP, the “shrunken log2 fold change” value was -0.0271. In the case of RRIRQRPPRLPRPRPRPMKAPRP, the “shrunken log2 fold change” value was 0.181. For RRIRWRPPRLPRPRPRPHMHPRP, the “shrunken log2 fold change” value was -0.36. For RRIRHRPPRLPRPRPRPQRRPRP, the “shrunken log2 fold change” value was 0.0777. For RRIRLRPPRLPRPRPRPTMSPRP, the “shrunken log2 fold change” value was -0.226. RRIRVRPPRLPRPRPRPQKDPRP was tested, and the “shrunken log2 fold change” value was -0.187. For RRIRHRPPRLPRPRPRPTQFPRP, the “shrunken log2 fold change” value was -0.631. With RRIRYRPPRLPRPRPRPINCPRP the “shrunken log2 fold change” value was -0.122. With RRIRQRPPRLPRPRPRPKIRPRP the “shrunken log2 fold change” value was 0.00599. With RRIRPRPPRLPRPRPRPYTNPRP the “shrunken log2 fold change” value was -0.709. With RRIRLRPPRLPRPRPRPGWVPRP the “shrunken log2 fold change” value was 0.117. In the case of RRIRCRPPRLPRPRPRPDADPRP, the “shrunken log2 fold change” value was 0.472. With RRIRGRPPRLPRPRPRPCIPPRP the “shrunken log2 fold change” value was -0.165. In the case of RRIRWRPPRLPRPRPRPENIPRP, the “shrunken log2 fold change” value was -0.148. In the case of RRIRGRPPRLPRPRPRPFCLPRP, the “shrunken log2 fold change” value was 0.229. For RRIRIRPPRLPRPRPRPKYAPRP, the “shrunken log2 fold change” value was -0.118. With RRIRDRPPRLPRPRPRPSSKPRP the “shrunken log2 fold change” value was -0.0562. With RRIRHRPPRLPRPRPRPISVPRP the “shrunken log2 fold change” value was -0.00149. RRIRMRPPRLPRPRPRPVHYPRP was tested, and the “shrunken log2 fold change” value was -0.0505. RRIRARPPRLPRPRPRPQLQPRP was tested, and the “shrunken log2 fold change” value was 0.426. For RRIRFRPPRLPRPRPRPAVWPRP, the “shrunken log2 fold change” value was 0.402. In the case of RRIRVRPPRLPRPRPRPVVWPRP, the “shrunken log2 fold change” value was 0.385. In the case of RRIRNRPPRLPRPRPRPFGCPRP, the “shrunken log2 fold change” value was -0.128. In the case of RRIRCRPPRLPRPRPRPTDKPRP, the “shrunken log2 fold change” value was -0.243. In the case of RRIRKRPPRLPRPRPRPKPMPRP, the “shrunken log2 fold change” value was 0.515. RRIRPRPPRLPRPRPRPWKWPRP was tested, and the “shrunken log2 fold change” value was 0.423. For RRIRMRPPRLPRPRPRPRQTPRP, the “shrunken log2 fold change” value was 0.0189. With RRIRFRPPRLPRPRPRPQQLPRP the “shrunken log2 fold change” value was -0.437. For RRIRLRPPRLPRPRPRPMMEPRP, the “shrunken log2 fold change” value was 0.195. For RRIRERPPRLPRPRPRPLQYPRP, the “shrunken log2 fold change” value was -0.286. RRIRLRPPRLPRPRPRPLMAPRP was tested, and the “shrunken log2 fold change” value was -0.246. For RRIRVRPPRLPRPRPRPLQIPRP, the “shrunken log2 fold change” value was -0.0888. In the case of RRIRHRPPRLPRPRPRPNEAPRP, the “shrunken log2 fold change” value was 0.0232.
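Note: peptides expressed intracellularly from a pBAD plasmid library in pooled LB shake-flask culture, induced with 0.3% L-arabinose, DNA abundance read by NGS, three biological replicates, DESeq2 with apeglm shrinkage.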
